Legend:
[1] = biological target: SUMO-CD99 fusion protein (SUMO fused with the extracellular domain of CD99, residues 23-122) (human) (UniProt P14209); test: apparent affinity to the recombinant ECD of CD99; method not given, value compared with the bead-based values of FIG. 1F
[2] = biological target: CD99 endogenously expressed on cells (Jurkat, KOPT-K1) (UniProt P14209); test: cell binding; apparent KD; nM molecule; avid
[3] = biological target: CD99 endogenously expressed on cells (Jurkat, KOPT-K1) (UniProt P14209); test: cell binding; apparent KD; nM Fv; avid

CD99 endogenously expressed on cells (Jurkat, KOPT-K1), sequence (P14209 23-185): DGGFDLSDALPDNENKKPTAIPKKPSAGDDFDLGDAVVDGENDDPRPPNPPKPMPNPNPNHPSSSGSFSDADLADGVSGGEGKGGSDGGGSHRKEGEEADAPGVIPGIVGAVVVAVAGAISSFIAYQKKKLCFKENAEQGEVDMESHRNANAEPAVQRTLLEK
SUMO-CD99 fusion protein (SUMO fused with the extracellular domain of CD99, residues 23-122) (human), sequence (P14209 23-122): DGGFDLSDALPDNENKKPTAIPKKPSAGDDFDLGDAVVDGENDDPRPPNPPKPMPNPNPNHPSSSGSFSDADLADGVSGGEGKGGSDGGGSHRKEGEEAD

Kd [1]	Kd [2]	Kd [3]	Substance
226 nM	–	–	anti-CD99 mouse IgM, HO36-1.1 (ab212605, Abcam) (antibody)
–	2.6 nM	5.2 nM	bivalent SAV-10A1 Fab complex (A2D2 streptavidin with biotinylated 10A1 Fab) (from UniProt P22629 37-163; P22629 37-163)
–	1.3 nM	3.9 nM	trivalent SAV-10A1 Fab complex (A3D1 streptavidin with biotinylated 10A1 Fab) (from UniProt P22629 37-163; P22629 37-163)
